We go through 5 molecules from patent US20180002415A1 (Chugai, published 2018).

The target in assay [1] is T1, 481-660.
T1 construct: Expressed in E. coli
T1 GST fusion polypeptide: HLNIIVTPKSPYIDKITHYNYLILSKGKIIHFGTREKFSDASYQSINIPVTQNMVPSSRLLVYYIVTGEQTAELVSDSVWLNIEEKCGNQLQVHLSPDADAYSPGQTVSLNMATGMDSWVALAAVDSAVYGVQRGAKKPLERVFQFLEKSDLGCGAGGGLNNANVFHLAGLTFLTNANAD
Kind of assay: summary drawing of the binding reactions to C5 beta-chain fragments.

The target of assay [2] is T2, C5 peptide 33-108 fused to GST-tag (human, UniProt P01031 33-108).
T2 construct: not shown: GST-tag (glutathione S-transferase); vector and linker not restated
The assay is described as above.

The target of assay [3] is T3, C5 peptide 33-111 fused to GST-tag (human, UniProt P01031 33-111).
T3 construct: not shown: GST-tag (glutathione S-transferase); vector and linker not restated
The description is as above.

The target of assay [4] is T4, C5 peptide 45-111 fused to GST-tag (human, UniProt P01031 45-111).
T4 construct: not shown: GST-tag (glutathione S-transferase); vector and linker not restated
Described as above.

For assay [5], the target named is T5, C5 peptide 52-124 fused to GST-tag (human, UniProt P01031 52-124).
T5 construct: not shown: GST-tag (glutathione S-transferase); vector and linker not restated
The description is as above.

Assay [6] deals with T6, C5 peptide 45-124 fused to GST-tag (human, UniProt P01031 45-124).
T6 construct: not shown: GST-tag (glutathione S-transferase); vector and linker not restated
The description is as above.

Assay [7] deals with T7, recombinant cynomolgus monkey C5 (cynomolgus monkey, UniProt P01031 20-1676 (human entry), limits assumed).
T7 construct: also called cynoC5
T7 chain: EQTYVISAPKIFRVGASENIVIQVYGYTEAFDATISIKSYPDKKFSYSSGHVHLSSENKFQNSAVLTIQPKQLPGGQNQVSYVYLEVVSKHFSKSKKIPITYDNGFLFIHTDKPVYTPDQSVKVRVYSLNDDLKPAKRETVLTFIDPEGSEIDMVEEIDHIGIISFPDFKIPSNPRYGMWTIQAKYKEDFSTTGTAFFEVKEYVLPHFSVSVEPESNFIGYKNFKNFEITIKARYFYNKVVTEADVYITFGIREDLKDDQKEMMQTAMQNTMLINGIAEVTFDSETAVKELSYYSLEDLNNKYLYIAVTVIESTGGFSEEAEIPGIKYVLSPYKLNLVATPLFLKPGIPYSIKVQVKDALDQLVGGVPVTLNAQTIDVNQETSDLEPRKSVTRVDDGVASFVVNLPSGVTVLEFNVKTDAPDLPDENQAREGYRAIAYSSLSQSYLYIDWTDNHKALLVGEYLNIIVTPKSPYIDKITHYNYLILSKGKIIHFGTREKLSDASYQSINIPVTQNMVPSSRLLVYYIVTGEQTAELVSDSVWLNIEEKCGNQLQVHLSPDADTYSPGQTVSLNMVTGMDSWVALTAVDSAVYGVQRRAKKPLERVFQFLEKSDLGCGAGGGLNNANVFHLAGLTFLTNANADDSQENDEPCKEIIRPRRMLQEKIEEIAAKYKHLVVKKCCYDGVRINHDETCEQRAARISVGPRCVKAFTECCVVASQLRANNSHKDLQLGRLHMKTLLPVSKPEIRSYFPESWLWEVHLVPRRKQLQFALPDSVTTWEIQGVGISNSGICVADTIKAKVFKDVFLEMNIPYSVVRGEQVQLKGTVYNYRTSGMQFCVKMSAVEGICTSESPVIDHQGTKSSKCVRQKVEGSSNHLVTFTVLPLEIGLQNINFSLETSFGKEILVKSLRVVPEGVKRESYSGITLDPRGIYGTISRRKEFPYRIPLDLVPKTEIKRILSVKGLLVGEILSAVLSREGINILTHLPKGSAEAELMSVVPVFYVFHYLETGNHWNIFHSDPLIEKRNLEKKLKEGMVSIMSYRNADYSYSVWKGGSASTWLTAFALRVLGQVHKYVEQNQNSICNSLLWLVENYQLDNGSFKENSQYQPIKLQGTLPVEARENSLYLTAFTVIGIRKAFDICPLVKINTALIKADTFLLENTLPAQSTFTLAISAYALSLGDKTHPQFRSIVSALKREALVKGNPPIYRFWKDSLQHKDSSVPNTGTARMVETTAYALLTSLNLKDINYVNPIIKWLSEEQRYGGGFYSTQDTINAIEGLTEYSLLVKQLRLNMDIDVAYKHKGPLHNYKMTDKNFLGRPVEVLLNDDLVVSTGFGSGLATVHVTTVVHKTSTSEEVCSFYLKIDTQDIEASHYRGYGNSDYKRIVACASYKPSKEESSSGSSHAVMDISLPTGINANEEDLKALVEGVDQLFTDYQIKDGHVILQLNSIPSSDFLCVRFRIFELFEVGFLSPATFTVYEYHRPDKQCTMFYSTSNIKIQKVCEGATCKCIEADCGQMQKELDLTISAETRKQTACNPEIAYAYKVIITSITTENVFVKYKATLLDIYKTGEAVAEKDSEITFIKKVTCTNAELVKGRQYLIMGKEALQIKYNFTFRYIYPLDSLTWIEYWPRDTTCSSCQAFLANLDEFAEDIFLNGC
The experiment in a line: SPR (Biacore), 37C, pH 7.4, Ab captured on ProA/G.
Method: To observe the cross-reactivity of anti-C5 antibodies against human C5 (hC5) and cynomolgus monkey C5 (cynoC5), BIACORE® kinetics analysis was performed.

Assay [8] deals with T8, 321-500.
T8 construct: Expressed in E. coli
T8 GST fusion polypeptide: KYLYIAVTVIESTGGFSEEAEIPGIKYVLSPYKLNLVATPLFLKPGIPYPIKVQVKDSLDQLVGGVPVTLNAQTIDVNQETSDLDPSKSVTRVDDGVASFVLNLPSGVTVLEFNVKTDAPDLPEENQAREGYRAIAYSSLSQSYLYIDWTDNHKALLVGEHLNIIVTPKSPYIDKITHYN
The experiment in a line: Western blot of E. coli lysates expressing GST-fused C5 beta-chain fragments.
Method: (§1) Anti-C5 monoclonal antibodies (MAbs) were tested for binding to C5 β-chain-derived peptides in Western blot analysis. […] The E. coli samples were harvested after incubation with 1 mM Isopropyl β-D-1-thiogalactopyranoside (IPTG) for 5 hours at 37° C., and centrifuged at 20000×g for 1 min to obtain pellets.

Assay [9] has as its target T9, 161-340.
T9 construct: Expressed in E. coli
T9 GST fusion polypeptide: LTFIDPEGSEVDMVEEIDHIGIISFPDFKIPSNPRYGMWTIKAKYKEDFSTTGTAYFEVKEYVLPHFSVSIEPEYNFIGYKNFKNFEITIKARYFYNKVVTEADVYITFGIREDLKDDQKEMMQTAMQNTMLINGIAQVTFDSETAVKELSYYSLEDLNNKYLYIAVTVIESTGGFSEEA
Described as above.
Method: as §1

Assay [10] deals with T8, 321-500. The experiment in a line: summary drawing of the binding reactions to C5 beta-chain fragments.
Assay [11] addresses T10, recombinant human C5 (human, UniProt P01031 20-1676).
T10 construct: Also used for the C5 of normal human serum in the functional rows; also called hC5; rhC5
Kind of assay: SPR (Biacore), ratio of dissociation rates of conditions (2) and (1).
Method: (§2) The kinetic parameters of anti-C5 antibodies against recombinant human C5 were assessed at 37° C. using BIACORE® T200 instrument (GE Healthcare) at three different conditions; (1) both association and dissociation were at pH7.4, (2) both association and dissociation were at pH5.8, and (3) association was at pH7.4 but dissociation was at pH5.8. ProA/G (Pierce) was immobilized onto a CM1 sensorchip using amine coupling kit (GE Healthcare) according to the recommended settings by GE Healthcare. Antibodies and analytes for condition (1) and (3) were diluted in ACES pH7.4 buffer (20 mM ACES, 150 mM NaCl, 1.2 mM CaCl₂, 0.05% Tween 20, 0.005% NaN₃) and for condition (2) they were diluted in ACES pH5.8 buffer (20 mM ACES, 150 mM NaCl, 1.2 mM CaCl₂, 0.05% Tween 20, 0.005% NaN₃). […] The surface was regenerated using 25 mM NaOH. Kinetic parameters at condition (1) and (2) were determined by fitting the sensorgrams with a 1:1 binding model and the dissociation rate at condition (3) was determined by fitting the sensorgrams with a 1:1 dissociation for MCK model using BIACORE® T200 Evaluation software, version 2.0 (GE Healthcare). pH dependency of all antibodies were shown as ratio of dissociation rate of condition (2) and (1).

For assay [12], the target named is T10, recombinant human C5. Kind of assay: SPR (Biacore), 37C, association at pH 7.4, dissociation at pH 5.8.
Method: as §2
Assay [13] concerns the target T10, recombinant human C5. Kind of assay: SPR (Biacore), 37C, association and dissociation at pH 7.4, Ab on ProA/G.
Method: as §2
In assay [14] the target is T10, recombinant human C5. The experiment in a line: SPR (Biacore), 37C, association and dissociation at pH 5.8, Ab on ProA/G.
Method: as §2

T6 sequence (P01031 45-124): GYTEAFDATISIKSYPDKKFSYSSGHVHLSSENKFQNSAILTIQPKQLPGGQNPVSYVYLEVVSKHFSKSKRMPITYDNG
T4 sequence (P01031 45-111): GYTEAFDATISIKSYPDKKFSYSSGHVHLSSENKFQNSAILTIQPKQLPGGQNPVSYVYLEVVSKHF
T3 sequence (P01031 33-111): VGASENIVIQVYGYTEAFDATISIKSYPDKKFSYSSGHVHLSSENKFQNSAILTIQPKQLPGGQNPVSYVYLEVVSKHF
T2 sequence (P01031 33-108): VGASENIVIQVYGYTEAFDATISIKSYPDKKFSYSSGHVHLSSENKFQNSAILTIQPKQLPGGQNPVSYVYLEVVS
T5 sequence (P01031 52-124): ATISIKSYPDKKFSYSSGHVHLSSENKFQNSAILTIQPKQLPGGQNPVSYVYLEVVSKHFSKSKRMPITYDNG

B1: CFA0675 (antibody, V domains shown)
VH: QSVEESGGRLVTPGTPLTLTCTVSGFSLSTYAMGWVRQAPGKGLEWIGTIDTGDNSFYANWAKGRFTISRTSTTVDLKITSPTAEDTATYFCARNDGSVYNLFNLWGPGTLVTVSS
VL: DVVMTQTPASVSAAVGGTVTIKCQASENIYSALSWYQQKPGLRPRLLIYYASTLASGVPSRFKGSRSGTEFTLTISDLECADAASYYCQQYYDINSVDNTFGGGTKVVVE
notes: Chimeric, rabbit V regions; also called CFA0675-F760G4
In the case of B1, the binding result in assay [1], in [2], in assay [3], in [4], in assay [5] and in assay [6] was “no binding” throughout. The binding result in [8] and in assay [9] was “no binding” throughout. Further, in assay [7], the Kd was determined as 1.29 nM.

B2: CFA0307 (antibody, V domains shown)
VH: QSLEESGGGLVKPGASLTLTCKASGIDFSNFYYICWVRQAPGKGLDLIACIYTVSGYTYYASWAKGRLTISKTSSTTVTLQMTSLTAADTATYFCARDLHAGITNLWGPGTLVTVSS
VL: AIEMTQTPFSVSAAVGGTVTIKCQASQNIYSNLAWYQQKPGQRPKLLIYGASNLESGVPSRFKGSGSGTEYTLTISDLECADAATYYCLQGYSYSNVDDAFGGGTEVVVK
notes: Chimeric, rabbit V regions; also called CFA0307-F760G4
In the case of B2, the binding result in assay [10], in assay [1], in assay [2], in assay [3], in assay [4] and in [5] was “no binding” throughout. The binding result in assay [6] and in [9] was “no binding” in each case. Besides, the Kd in assay [7] was 7.68 nM.

B3: 305LO20-SG115 (antibody, human IgG1)
heavy: QVQLVESGGGLVQPGGSLRLSCAASGFTVHSSYYMAWVRQAPGKGLEWVGAIFTGSGAEYKAEWAKGRVTISKDTSKNQVVLTMTNMDPVDTATYYCASDAGYDYPTHAMHYWGQGTLVTVSSASTKGPSVFPLAPSSKSTSGGTAALGCLVKDYFPEPVTVSWNSGALTSGVHTFPAVLQSSGLYSLSSVVTVPSSSLGTQTYICNVNHKPSNTKVDKKVEPKSCDKTHTCPPCPAPELRRGPKVFLFPPKPKDTLMISRTPEVTCVVVDVSHEDPEVKFNWYVDGVEVHNAKTKPREEQYNSTYRVVSVLTVLHQDWLNGKEYKCKVSNKGLPSSIEKTISKAKGQPREPQVYTLPPSREEMTKNQVSLTCLVKGFYPSDIAVEWESNGQPENNYKTTPPVLDSDGSFFLYSKLTVDKSRWQQGNVFSCSVLHEALHAHYTRKELSLSP
light: DIQMTQSPSSLSASVGDRVTITCRASQGISSSLAWYQQKPGQAPRLLIYGASETESGVPSRFSGSGSGTDFTLTISSLQPEDFATYYCQNTKVGSSYGNTFGGGTKVEIKRTVAAPSVFIFPPSDEQLKSGTASVVCLLNNFYPREAKVQWKVDNALQSGNSQESVTEQDSKDSTYSLSSTLTLSKADYEKHKVYACEVTHQGLSSPVTKSFNRGEC
notes: Modified human IgG1 CH SG115, human CL SK1
As for B3, the “pH dependency (kd pH 5.8 / kd pH 7.4)” value in [11] was 17.5 fold. In addition, the koff was determined as 0.0161 s⁻¹ in assay [12], 0.000467 s⁻¹ in [13] and 0.00818 s⁻¹ in assay [14]. The values for the kon in assay [13] and in assay [14] were 1.44e+06 M⁻¹ s⁻¹ and 141000 M⁻¹ s⁻¹, respectively.

B4: 305LO23-SG115 (antibody, human IgG1, V domains shown)
VH: QVQLVESGGGLVQPGGSLRLSCAASGFTVHSSYYMAWVRQAPGKGLEWVSGIFTGSGATYKAEWAKGRVTISKDTSKNQVVLTMTNMDPVDTATYYCASDAGYDYPTHAMHYWGQGTLVTVSS
VL: DIQMTQSPSSLSASVGDRVTITCRASQGISSSLAWYQQKPGQAPRLLIYGASTTQSGVPSRFSGSGSGTDFTLTISSLQPEDFATYYCQNTKVGSSYGNTFGGGTKVEIKR
notes: as for B3
With B4, the “pH dependency (kd pH 5.8 / kd pH 7.4)” value in assay [11] amounted to 20.2 fold. Also, the results for the koff in assay [12], in assay [13] and in assay [14] were 0.0173 s⁻¹, 0.000423 s⁻¹ and 0.00855 s⁻¹, respectively. Besides, the kon was determined as 1.53e+06 M⁻¹ s⁻¹ in [13] and 133000 M⁻¹ s⁻¹ in assay [14].

B5: 305LO20-SG422 (antibody, human IgG4)
heavy: QVQLVESGGGLVQPGGSLRLSCAASGFTVHSSYYMAWVRQAPGKGLEWVGAIFTGSGAEYKAEWAKGRVTISKDTSKNQVVLTMTNMDPVDTATYYCASDAGYDYPTHAMHYWGQGTLVTVSSASTKGPSVFPLAPCSRSTSGGTAALGCLVKDYFPEPVTVSWNSGALTSGVHTFPAVLQSSGLYSLSSVVTVPSSSLGTKTYTCNVDHKPSNTKVDKRVESKYGPPCPPCPAPEFRRGPKVFLFPPKPKDTLMISRTPEVTCVVVDVSHEDPEVKFNWYVDGVEVHNAKTKPREEQYNSTYRVVSVLTVLHQDWLNGKEYKCKVSNKGLPSSIEKTISKAKGQPREPQVYTLPPSREEMTKNQVSLTCLVKGFYPSDIAVEWESNGQPENNYKTTPPVLDSDGSFFLYSKLTVDKSRWQQGNVFSCSVLHEALHAHYTRKELSLSP
light: DIQMTQSPSSLSASVGDRVTITCRASQGISSSLAWYQQKPGQAPRLLIYGASETESGVPSRFSGSGSGTDFTLTISSLQPEDFATYYCQNTKVGSSYGNTFGGGTKVEIKRTVAAPSVFIFPPSDEQLKSGTASVVCLLNNFYPREAKVQWKVDNALQSGNSQESVTEQDSKDSTYSLSSTLTLSKADYEKHKVYACEVTHQGLSSPVTKSFNRGEC
notes: Modified human IgG4 CH SG422, human CL SK1
With B5, the “pH dependency (kd pH 5.8 / kd pH 7.4)” value in assay [11] came out at 17.3 fold. Also, the results for the koff in assay [12], in assay [13] and in [14] were 0.0155 s⁻¹, 0.00047 s⁻¹ and 0.00815 s⁻¹, respectively. The kon in assay [13] is 1.35e+06 M⁻¹ s⁻¹; in assay [14], 136000 M⁻¹ s⁻¹.
